Common to all, as to test: SPR
For orientation: SPR reads the build-up and loss of mass on a sensor chip optically.

Experiment [1] addresses human MMP-12 (human).
The target in a further experiment is mouse MMP-12 (mouse).
Experiment [2] addresses human MMP-12 (human). The source holds these as a separate data set.

Read-outs that look alike come from different tables or passages of the source.

Sequence of human MMP-12 (human) (B2R9X8 whole entry): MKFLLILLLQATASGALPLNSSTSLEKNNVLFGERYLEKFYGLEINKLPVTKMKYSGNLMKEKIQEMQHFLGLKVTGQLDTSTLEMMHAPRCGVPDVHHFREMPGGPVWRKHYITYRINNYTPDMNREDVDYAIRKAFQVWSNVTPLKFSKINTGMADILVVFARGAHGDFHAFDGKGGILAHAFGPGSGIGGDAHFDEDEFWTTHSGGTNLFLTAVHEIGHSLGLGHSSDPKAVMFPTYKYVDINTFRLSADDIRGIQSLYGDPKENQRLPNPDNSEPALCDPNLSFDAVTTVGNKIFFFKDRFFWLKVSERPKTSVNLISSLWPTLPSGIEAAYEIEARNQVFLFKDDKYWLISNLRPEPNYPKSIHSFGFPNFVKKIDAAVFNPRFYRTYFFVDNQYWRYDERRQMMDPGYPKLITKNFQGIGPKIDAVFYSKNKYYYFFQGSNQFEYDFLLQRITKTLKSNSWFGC
Sequence of mouse MMP-12 (mouse) (chain, as listed by the source): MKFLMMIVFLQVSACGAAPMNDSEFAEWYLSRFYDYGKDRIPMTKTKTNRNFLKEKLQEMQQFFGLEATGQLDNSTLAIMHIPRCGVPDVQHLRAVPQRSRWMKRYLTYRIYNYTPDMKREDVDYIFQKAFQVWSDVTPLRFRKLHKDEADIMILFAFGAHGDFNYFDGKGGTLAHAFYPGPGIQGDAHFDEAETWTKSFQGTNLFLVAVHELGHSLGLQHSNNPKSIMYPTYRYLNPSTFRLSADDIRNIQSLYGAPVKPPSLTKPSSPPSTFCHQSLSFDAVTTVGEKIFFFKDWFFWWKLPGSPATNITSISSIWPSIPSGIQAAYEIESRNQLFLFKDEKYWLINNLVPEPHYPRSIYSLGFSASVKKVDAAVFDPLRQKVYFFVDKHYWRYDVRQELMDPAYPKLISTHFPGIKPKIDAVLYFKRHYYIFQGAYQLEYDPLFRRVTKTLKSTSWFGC

B1: 539B-M0121-E07 (antibody, V domains shown)
VH: EVQLLESGGGLVQPGGSLRLSCAASGFTFSWYGMHWVRQAPGKGLEWVSGIVSSGGETFYADSVKGRFTISRDNSKNTLYLQMNSLRAEDTAVYYCAKDIRGVFLSGLFDHWGRGTLVTVSS
VL: DIQMTQSPSSLSASVGDRVTITCRANQSIYTYLNWYQQKPGKAPELLIYAASSLQSGVPSRFSGSGSGTDFTLTISSLQPEDFATYYCQQAGIFGQGTKLEIK
In general, Kd refers to the constant that tells how readily two partners part at equilibrium. Lower therefore signals a tighter complex. Regarding B1, the equilibrium dissociation constant (Kd) in the experiment with human MMP-12 [1] is 0.197 nM.

B2: 539B-M0118-F11 (antibody, V domains shown)
VH: EVQLLESGGGLVQPGGSLRLSCAASGFTFSYYNMHWVRQAPGKGLEWVSGISPSGGTTFYADSVKGRFTISRDNSKNTLYLQMNSLRAEDTAVYYCARDITGAYSAGLFDLWGRGTLVTVSS
VL: DIQMTQSPSSLSASVGDRVTITCRANQSIYTYLNWYQQKPGKAPELLIYAASSLQSGVPSRFSGSGSGTDFTLTISSLQPEDFATYYCQQAGIFGQGTKLEIK
In general, koff refers to a measure of how fast the partners let go of each other. A lower koff goes with slow dissociation. Consider B2, for which the off-rate constant (koff) with mouse MMP-12 turned out to be 0.000193 s⁻¹. This molecule had an equilibrium dissociation constant (Kd) with human MMP-12 [1] of 1.17 nM.

B3: 539B-M0131-A06 (antibody, V domains shown)
VH: EVQLLESGGGLVQPGGSLRLSCAASGFTFSWYWMHWVRQAPGKGLEWVSGISPSGGMTMYADSVKGRFTISRDNSKNTLYLQMNSLRAEDTAVYYCARDIVGPYSAGLFDYWGRGTLVTVSS
VL: DIQMTQSPSSLSASVGDRVTITCRANQSIYTYLNWYQQKPGKAPELLIYAASSLQSGVPSRFSGSGSGTDFTLTISSLQPEDFATYYCQQAGIFGQGTKLEIK
In the case of B3, the off-rate constant (koff) with mouse MMP-12 was found to be 4.84e-05 s⁻¹.

B4: 539B-M0130-C12 (antibody, V domains shown)
VH: EVQLLESGGGLVQPGGSLRLSCAASGFTFSEYNMHWVRQAPGKGLEWVSGIVPSGGLTHYADSVKGRFTISRDNSKNTLYLQMNSLRAEDTAVYYCARDIRGAYSAGIFDYWGRGTLVTVSS
VL: DIQMTQSPSSLSASVGDRVTITCRANQSIYTYLNWYQQKPGKAPELLIYAASSLQSGVPSRFSGSGSGTDFTLTISSLQPEDFATYYCQQAGIFGQGTKLEIK
Take B4: in the experiment with human MMP-12 [2], the Kd was 0.68 nM. This counts as sub-nanomolar.

B5: 539B-M0065-H05 IgG (antibody, V domains shown)
VH: EVQLLESGGGLVQPGGSLRLSCAASGFTFSYYGMGWVRQAPGKGLEWVSVISSSGGFTFYADSVKGRFTISRDNSKNTLYLQMNSLRAEDTAVYYCAKDIRGAYSSGLFDYWGRGTLVTVSS
VL: DIQMTQSPSSLSASVGDRVTITCRANQSIYTYLNWYQQKPGKAPELLIYAASSLQSGVPSRFSGSGSGTDFTLTISSLQPEDFATYYCQQAGIFGQGTKLEIK
In the experiment with human MMP-12 [2], B5 gave a Kd of 2.2 nM. Compared with the last molecule, the Kd is about 3.2-fold higher.

(Values after patent US20090311183 (published 2009).)
